Assay [1] has as its target T1, recombinant human CTLA4 protein with human IgG1 Fc tag at the C-terminus (Acro biosystems, Cat#CT4-H5255) (human, UniProt P16410 37-162).
T1 sequence (looked up): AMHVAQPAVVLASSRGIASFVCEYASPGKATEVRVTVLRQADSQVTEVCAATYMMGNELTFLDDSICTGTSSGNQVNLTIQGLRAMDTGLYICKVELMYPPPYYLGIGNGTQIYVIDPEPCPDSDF
Kind of assay: cell-based or functional assay.

The target of assay [2] is T2, recombinant human CTLA4-his protein (Acro biosystems, Cat#CT4-H5229) (human, UniProt P16410 37-162).
T2 construct: bought recombinant protein; not shown: his tag
T2 sequence (looked up): T1 sequence (looked up)
Kind of assay: SPR, Biacore T200; antibody captured, CTLA4-his as analyte. The procedure:
(§1) Un-reacted moieties on the biosensor surface were blocked with ethanolamine. […] The antigen-antibody association kinetics was followed for 2 minutes and the dissociation kinetics was followed for 10 minutes. The association and dissociation curves were fit to a 1:1 Langmuir binding model using BIAcore evaluation software.

In assay [3] the target is T3, cynomolgus monkey CTLA4-his protein (Acro biosystems, Cat#CT4-C5227) (cynomolgus monkey, UniProt G7PL88 36-161).
T3 construct: bought recombinant protein; also called Cynomolgus CTLA4-his; not shown: his tag
T3 sequence: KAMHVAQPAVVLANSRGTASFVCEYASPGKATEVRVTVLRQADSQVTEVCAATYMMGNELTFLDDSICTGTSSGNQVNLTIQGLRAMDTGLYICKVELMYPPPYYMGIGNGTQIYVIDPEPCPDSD
Described as above. The procedure:
as §1

Assay [4] concerns the target T1, recombinant human CTLA4 protein with …. Kind of assay: capture ELISA: antibody captured on anti-mouse IgG F(ab')2 coated plate, biotin human CTLA4-Fc 26 ng/ml, streptavidin-HRP, OD(450-630). The procedure:
(§2) Plates were washed once with wash buffer (PBS+0.05% v/v Tween-20, PBST) and then blocked with 200 µl/well blocking buffer (PBST with 5% w/v non-fatty milk) for 2 hours at 37° C. […] After a final wash, plates were incubated with 100 µl/well substrate TMB (Innoreagents, Cat#TMB-S-002). The reaction was stopped in 15 minutes at room temperature with 50 µl/well 1M H₂SO₄, and the absorbance of the each well was read on a microplate reader using dual wavelength mode with 450 nm for TMB and 630 nm as the reference wavelength, then the OD (450-630) values were plotted against antibody concentration. Data was analyzed using Graphpad Prism software and EC₅₀ values were reported.
On the technique in general: In an ELISA, binding on a coated surface is turned into a signal by an enzyme label.

Assay [5] shares this target. The experiment in a line: cell based blocking FACS: antibody pre-mixed with human CTLA4-Fc, added to Daudi cells; blocked ligands: cell surface CD80/CD86.
For assay [6] the target is unchanged. The experiment in a line: cell based blocking FACS: antibody pre-mixed with human CTLA4-Fc (1 ug/mL), added to Daudi cells; blocked ligands: cell surface CD80/CD86. The procedure: (§3) Daudi cells were harvested from cell culture flasks at the log phase, washed twice and re-suspended in PBS containing 2% v/v Fetal Bovine Serum (FACS buffer). […] Cells were washed twice and re-suspended in FACS buffer. Fluorescence was measured using a Becton Dickinson FACS Canto II-HTS equipment. Data was analyzed using Graphpad Prism software and IC₅₀ values were reported.

The target is the same in assay [7]. The experiment in a line: competitive ELISA: antibody pre-mixed with biotin human CTLA4-Fc (65 ng/ml), added to plate coated with the benchmark; competitor: coated Yervoy. The method, then:
(§4) Plates were washed once with wash buffer, blocked with 200 µl PBST with 5% w/v non-fatty milk, incubated for 2 hours at 37° C., and washed 4 times.
(§5) After incubation at 37° C. for 40 minutes, plates were washed 4 times again using wash buffer. Then the plates were added and incubated with 100 µl/well streptavidin conjugated HRP (1:10000 dilution in PBST, Jackson Immuno Research, Cat#016-030-084, 100 µl/well) for 40 minutes at 37° C. Plates were finally washed using wash buffer. Finally, TMB was added and the reaction was stopped using 1M H₂SO₄, and the absorbance of the each well was read on a microplate reader using dual wavelength mode with 450 nm for TMB and 630 nm as the reference wavelength, then the OD (450-630) values were plotted against antibody concentration. Data was analyzed using Graphpad Prism software and IC₅₀ values were reported.

Assay [8] has the same target. The experiment in a line: capture ELISA: antibody captured on coated plate (anti-human IgG Fc for the chimeric antibodies), biotin human CTLA4-Fc, streptavidin-HRP, OD(450-630). The procedure: as §2
For the capture ELISA, AffiniPure Goat Anti-Human IgG, Fcy fragment specific (Jackson Immuno Research, Cat#109-005-008) was used instead of AffiniPure Goat Anti-Mouse IgG, F(ab′)₂ fragment specific, 100 µl/well.

Assay [9] has the same target. Kind of assay: cell-based or functional assay. This is another data set of the same source.
Assay [10] has as its target T2, recombinant human CTLA4-his protein …. Kind of assay: BLI, Octet; antibody from cell supernatant on AHC sensor, CTLA4-his as analyte. The method, then: (§6) Briefly, AHC biosensors (anti-human IgG Fc capture, from ForteBio) were presoaked with 10 mM glycine (pH 1.5) for 3 seconds, and then dipped in a well with running buffer (0.5% w/v BSA in PBST) for 3 seconds, the soaking and dipping steps were repeated for three times. […] A new baseline was run for 180 seconds in another well with running buffer. […] Finally, sensors were presoaked with 10 mM glycine (pH 1.5) for 3 seconds, and then were dipped in a well with running buffer for 3 seconds, the soaking and dipping steps repeated for three times. The association and dissociation curves were fit to a 1:1 Langmuir binding model using ForteBio Data Analysis 8.1.
(BLI is a label-free optical method that tracks binding on a fibre tip over time.)

Assay [11] shares this target. Kind of assay: SPR, Biacore; antibody captured on anti-human IgG CM5 chip, CTLA4-his as analyte. The method, then:
(§7) Un-reacted moieties on the biosensor surface were blocked with ethanolamine. […] The antigen-antibody association kinetics was followed for 2 minutes and the dissociation kinetics was followed for 10 minutes. The association and dissociation curves were fit to a 1:1 Langmuir binding model using BIAcore evaluation software. […]

In assay [12] the target is T3, cynomolgus monkey CTLA4-his protein …. The description is as above. The method, then: as §7
In assay [13] the target is T1, recombinant human CTLA4 protein with …. The experiment in a line: capture ELISA (plate coated with goat anti-human IgG F(ab')2 per paragraph 181), biotin human CTLA4-Fc, streptavidin-HRP, OD(450-630). The procedure: as §2
(§8) In the capture ELISA assay, the 96-well micro plates were coated with 2 µg/ml goat anti-human IgG (AffiniPure Goat Anti-Human IgG, F(ab′)₂ fragment specific, Jackson Immunoresearch, Cat#109-005-097) instead of the goat anti-mouse IgG F(ab′)₂ fragment, 100 µl/well.

The target is the same in assay [14]. The experiment in a line: cell based blocking FACS: antibody pre-mixed with human CTLA4-Fc, added to Daudi cells; blocked ligands: cell surface CD80/CD86. The procedure:
as §3, §8
The source holds these as a separate data set.

For assay [15] the target is unchanged. The experiment in a line: competitive ELISA: antibody pre-mixed with biotin human CTLA4-Fc, added to plate coated with the benchmark; competitor: coated Yervoy. The procedure: as §4, §5, §8
Assay [16] has as its target T2, recombinant human CTLA4-his protein …. Kind of assay: BLI, Octet RED96; antibody on AHC sensor, CTLA4-his as analyte. The procedure: as §6

Read-outs that look alike come from different tables or passages of the source.

B1: mouse anti-CTLA4 monoclonal antibody C1G4 (antibody, V domains shown)
VH: EVKLDETGGGLVQPGRPIKLSCVASGFTFSDNWMNWVRQSPEKGLEWVAQIRNKPYNYETYYSDSVKGRFTISRDDSKSSVYLQMNNLRTKDMGIYYCTGGFTYWGQGTLVTVSA
VL: DIQMTQSPPSLSASVGETVTITCGASENIYGGLNWYQRKQGKSPQLLIYGATNLADGMSSRFSGSGSGRQYSLKISRLHPDDVATYYCQNVLNTPYTFGGGTKLEIK
notes: mouse mAb purified from hybridoma supernatant
The term Kd denotes the equilibrium constant for the complex coming apart. By koff is commonly meant the first-order rate constant of dissociation. For orientation: kon means the second-order rate constant of association. As usually defined, the EC50 is the concentration at which the effect is half-maximal. What is called IC50 is the concentration needed to halve the response being measured. On to B1, for which, in [1], the “EC50 of IL-2 release (GS-J1 T cells + GS-C1/CD80 cells + human CTLA4-Fc, IL-2 HTRF)” value (“EC50 of IL-2 release” below) was 35.3 nM. The Kd amounted to 1.77 nM in [2] and 1.71 nM in [3]. Moreover, the koff in assay [2] stood at 0.000513 s⁻¹; in [3] it was 0.00077 s⁻¹. Moreover, the kon stood at 290000 M⁻¹ s⁻¹ in assay [2] and 451000 M⁻¹ s⁻¹ in [3]. Moreover, the EC50 in assay [4] stood at 0.134 nM; in assay [8], 0.832 nM. Besides, the figures for the IC50 in [5], in assay [6] and in [7] were 10.6 nM, 11 nM and 0.865 nM, respectively.

B2: huC1D1-V8 (antibody, human IgG4 S228P, kappa, V domains shown)
VH: EVQLVESGGGLVQPGRSLRLSCTASGFTFSDNWMNWVRQAPGKGLEWVGQIRNKPYNYETYYSDSVKGRFTISRDDSKSIAYLQMNSLKTEDTAVYYCTGGMDYWGQGTTVTVSS
VL: DIQMTQSPSSLSASVGDRVTITCGASEIIYGALNWYQQKPGKSPKLLIYGATNLADGVPSRFSGSGSGTDFTLTISSLQPEDVATYYCQKILSPPPWTFGGGTKVEIKR
notes: humanized IgG4/kappa; cell supernatant on Octet, purified antibody in Biacore, ELISA, FACS and the functional assay; also called hu CTLA4 C1D1-V8
With B2, in assay [9], the “EC50 of IL-2 release” value amounted to 28.7 nM. Moreover, the Kd in assay [10] is 0.614 nM; in [11] it was 12 nM; in assay [12], 7.49 nM. Besides, the values for the koff in assay [10], in [11] and in assay [12] were 0.00019 s⁻¹, 0.00086 s⁻¹ and 0.00112 s⁻¹, respectively. In addition, the kon in [10] worked out at 309000 M⁻¹ s⁻¹; in [11], 71900 M⁻¹ s⁻¹; in assay [12] it was 150000 M⁻¹ s⁻¹. Besides, the EC50 in assay [13] was determined as 0.746 nM. Also, the IC50 came to 5.74 nM in assay [14] and 1.71 nM in assay [15].

B3: mouse anti-CTLA4 monoclonal antibody D1B6 (antibody, V domains shown)
VH: EVQLQQSGPELVKPGASVKLSCKASGNTFTTYVLNWVKQKPGQGLEWIGYFNPYNDGIKYNEKFKGKATLTSDKSSNTAYMELSSLTSEDSAVYYCARFEGGGYAMDYWGQGTSVTVSS
VL: DIVLTQSPASLAVSLGQRATISCRASQSVGTSRNTYIHWYQQKLGQPPKLLIKYASDLESGVPARFSGSGSGTDFTLNIHPVEEEDTATYYCQHSWEIPYTFGGGTKLEIK
notes: as for B1
On to B3, for which the “EC50 of IL-2 release” value in [1] amounted to 36.6 nM. For the same molecule, the Kd in assay [2] worked out at 7.45 nM; in assay [3], 4.12 nM. For the same molecule, the koff in assay [2] turned out to be 0.000487 s⁻¹; in assay [3] it was 0.000787 s⁻¹. Further, the values for the kon in assay [2] and in assay [3] were 65400 M⁻¹ s⁻¹ and 191000 M⁻¹ s⁻¹, respectively. In addition, the EC50 in assay [4] was found to be 0.116 nM; in assay [8] it was 0.418 nM. In addition, the IC50 in assay [5] is 8.09 nM; in [6], ~4.6 nM; in [7], 0.618 nM.

B4: chimeric D1B6 anti-CTLA4 antibody (antibody, human IgG4 S228P, kappa, V domains shown)
VH: B3 VH
VL: DIVLTQSPASLAVSLGQRATISCRASQSVGTSRNTYIHWYQQKLGQPPKLLIKYASDLESGVPARFSGSGSGTDFTLNIHPVEEEDTATYYCQHSWEIPYTFGGGTKLEIKR
notes: mouse variable domains on human IgG4/kappa, made in 293F cells
Consider B4, for which, in [16], the Kd is 148 nM, the koff was 0.00076 s⁻¹ and the kon amounted to 5140 M⁻¹ s⁻¹. The IC50 in assay [5] was ~6.6 nM. In addition, the EC50 in [8] amounted to 0.514 nM.

The values above are taken from patent US20230212304A1 (BIOSION, published 2023).
